Assay results: patent US20020146411A1, “Anticoagulant agents useful in treatment of thrombosis” (SmithKline Beecham Corporation, priority 1996, published 2002)

Legend:
[1] = target: recombinant human Factor IX (rhFIX, Genetics Institute) (human) (UniProt P00740); test: titration microcalorimetry, 106 uM FIX injected into 2 uM mAb
[2] = target: recombinant human Factor IX (rhFIX, Genetics Institute) (human) (UniProt P00740); test: isothermal titration calorimetry, 25° C.
[3] = target: recombinant human Factor IX (rhFIX, Genetics Institute) (human) (UniProt P00740); test: titration calorimetry
[4] = target: recombinant human Factor IX (rhFIX, Genetics Institute) (human) (UniProt P00740); test: biosensor (BIAcore)
[5] = target: recombinant human Factor IX (rhFIX, Genetics Institute) (human) (UniProt P00740); test: isothermal titration calorimetry
[6] = target: recombinant human Factor IX (rhFIX, Genetics Institute) (human) (UniProt P00740); test: BIAcore, antibody captured on immobilised protein A, rhFIX at 49 nM, 5 mM Ca2+
[7] = target: recombinant human Factor IX (rhFIX, Genetics Institute) (human) (UniProt P00740); test: titration calorimetry, 37° C., 10 mM CaCl2
[8] = target: recombinant human Factor IX (rhFIX, Genetics Institute) (human) (UniProt P00740); test: titration calorimetry, 25° C. (calculated from the van't Hoff equation), 10 mM CaCl2
[9] = target: recombinant human Factor IX (rhFIX, Genetics Institute) (human) (UniProt P00740); test: BIAcore, calculated from kdiss and kass
[10] = target: recombinant human Factor IX (rhFIX, Genetics Institute) (human) (UniProt P00740); test: BIAcore, calculated
[11] = target: recombinant human Factor IX (rhFIX, Genetics Institute) (human) (UniProt P00740); test: BIAcore kinetics of Factor IX binding
[12] = target: human Factor IX (human) (UniProt P00740); test: cell-based or functional assay
Sequence of human Factor IX (human) (P00740 47-461 limits assumed): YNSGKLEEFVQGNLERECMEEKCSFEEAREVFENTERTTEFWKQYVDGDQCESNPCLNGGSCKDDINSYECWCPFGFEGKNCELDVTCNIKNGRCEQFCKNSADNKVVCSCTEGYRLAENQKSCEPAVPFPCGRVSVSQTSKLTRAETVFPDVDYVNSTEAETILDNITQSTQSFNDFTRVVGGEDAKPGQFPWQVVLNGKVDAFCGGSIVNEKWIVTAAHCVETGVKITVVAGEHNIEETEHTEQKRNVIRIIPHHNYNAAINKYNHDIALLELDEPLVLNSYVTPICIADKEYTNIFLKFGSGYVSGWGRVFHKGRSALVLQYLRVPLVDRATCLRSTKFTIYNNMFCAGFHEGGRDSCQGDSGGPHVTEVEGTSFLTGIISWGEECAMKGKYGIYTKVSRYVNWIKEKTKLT

Sequence of recombinant human Factor IX (rhFIX, Genetics Institute) (human) (P00740 47-461 limits assumed): as above

Binder | Molar Binding Ratio FIX/mAb [3] | Kd [7] | Kd [8] | Kd [10] | koff [11] | kon [11] | further results
humanized anti-Factor IX monoclonal antibody SB 249415 (antibody, V domains shown) VH: QVQLVQSGSELKKPGASVKVSCKASGYTFTNYGMNWVRQAPGQGLKWMGWINTRNGKSTYVDDFKGRFVFSLDSSVSTAYLQISSLKADDTAVYYCTREGNMDGYFPFTYWGQGTLVTVSS VL: EIVLTQSPATLSLSPGERATLSCRASSSVNYMHWYQQRPGQAPKPWIYATSNLASGVPARFSGSGSGTDFTLTISSLEPEDFAVYYCQQWSINPRTFGGGTKVEIKR | 1.7 FIX/mAb | 7 nM | 3 nM | 1.1 to 2.3 nM | 0.00018 s⁻¹ | 750000 M⁻¹ s⁻¹ | –
humanized anti-Factor IX monoclonal antibody SB 249416 (antibody, V domains shown) VH: QVQLVQSGSELKKPGASVKVSCKASGYTFTNYGMNWVRQAPGQGLKWMGWINTRNGKSTYVDDFKGRFVFSLDSSVSTAYLQISSLKADDTAVYYCTREGNMDGYFPFTYWGQGTLVTVSS VL: EIVLTQSPATLSLSPGERATLSCRASSSVNYMHWYQQRPGQAPKPWIYATSNLASGVPARFSGSGSGTDYTLTISSLEPEDFAVYYCQQWSINPRTFGGGTKVEIKR | – | – | – | 0.8 nM | 0.00041 s⁻¹ | 520000 M⁻¹ s⁻¹ | –
humanized anti-Factor IX monoclonal antibody SB 249413 (antibody, V domains shown) VH: QVQLVQSGSELKKPGASVKVSCKASGYTFTNYGMNWVRQAPGQGLEWMGWINTRNGKSTYVDDFKGRFVFSLDTSVSTAYLQISSLKADDTAVYYCAREGNMDGYFPFTYWGQGTLVTVSS VL: EIVLTQSPATLSLSPGERATLSCRASSSVNYMHWYQQRPGQAPRLLIYATSNLASGIPARFSGSGSGTDFTLTISSLEPEDFAVYYCQQWSINPRTFGGGTKVEIKR | 1.9 FIX/mAb | 12 nM | 6 nM | 3.7 to 5.1 nM | 0.0028 s⁻¹ | 650000 M⁻¹ s⁻¹ | –
murine anti-Factor IX monoclonal antibody BC2 (antibody, mouse IgG2a, V domains shown) VH: QIQLVQSGPELKKPGETVKISCKASGYTFTNYGMNWVKQAPGKGLKWMGWINTRNGKSTYVDDFKGRFAFSLESSASTANLQIDNLKDEDTATYFCTREGNMDGYFPFTYWGQGTLVTVSA VL: QIVLSQSPAILSASPGEKVTMTCRASSSVNYMHWYQQKPGSSPKPWIYATSNLASGVPARFSGSGSGTSYSLTISRVEAEDAATYYCQQWSINPRTFGGGTKLEIKR | – | – | – | – | – | – | IC50, nM (aPTT of human plasma) [12]: 50 nM; aPTT at saturating antibody [12]: 90 s; aPTTmax / aPTTnormal × 100 % [12]: 350%

The next lines start with results.

Molar Binding Ratio FIX/mAb [3] | Kd [7] | Kd [8] | Kd [10] | koff [11] | kon [11] | Binder | further results
1.5 FIX/mAb | 12 nM | 4 nM | – | – | – | humanized anti-Factor IX monoclonal antibody SB 249417 (antibody, V domains shown) VH: QVQLVQSGSELKKPGASVKVSCKASGYTFTNYGMNWVRQAPGQGLKWMGWINTRNGKSTYVDDFKGRFVFSLDSSVSTAYLQISSLKADDTAVYYCTREGNMDGYFPFTYWGQGTLVTVSS VL: QIVLTQSPSSLSASVGDRVTITCRASSSVNYMHWYQQKPGKAPKPWIYATSNLASGVPSRFSGSGSGTDYTFTISSLQPEDIATYYCQQWSINPRTFGQGTKVEIKR | molar binding ratio at the equivalence point [1]: 2 FIX per mAb; Kd [2]: 4 nM; Kd [4]: 2 nM; koff [4]: 0.0004 s⁻¹; kon [4]: 200000 M⁻¹ s⁻¹; Stoichiometry of Factor IX Binding (moles Factor IX per mole mAb) [5]: 1.5; koff [6]: 0.00041 s⁻¹; kon [6]: 200000 M⁻¹ s⁻¹; Kd [9]: 1.9 nM
– | – | – | 1.1 nM | 0.00099 s⁻¹ | 920000 M⁻¹ s⁻¹ | humanized anti-Factor IX monoclonal antibody SB 257731 (antibody, V domains shown) VH: QVQLVQSGSELKKPGASVKVSCKASGYTFTNYGMNWVRQAPGQGLKWMGWINTRNGKSTYVDDFKGRFVFSLDSSVSTAYLQISSLKADDTAVYYCTREGNMDGYFPFTYWGQGTLVTVSS VL: QIVLTQSPATLSLSPGERATLSCRASSSVNYMHWYQQRPGQAPKPWIYATSNLASGVPARFSGSGSGTDYTLTISSLEPEDFAVYYCQQWSINPRTFGGGTKVEIK | –
1.8 FIX/mAb | 9 nM | 4 nM | 1.5 nM | 0.0012 s⁻¹ | 1.1e+06 M⁻¹ s⁻¹ | humanized anti-Factor IX monoclonal antibody SB 257732 (antibody, V domains shown) VH: QIQLVQSGSELKKPGASVKVSCKASGYTFTNYGMNWVRQAPGQGLEWMGWINTRNGKSTYVDDFKGRFVFSLDTSVSTAYLQISSLKAEDTAVYFCTREGNMDGYFPFTYWGQGTLVTVSS VL: QIVLTQSPSSLSASVGDRVTITCRASSSVNYMHWYQQKPGKAPKPWIYATSNLASGVPSRFSGSGSGTDYTLTISSLQPEDFATYYCQQWSINPRTFGGGTKLEIKR | –
